B1: Aptamer 30-8 (structured_DNA)
DNA: AGATGCCTGTCGAGCATGCTGTGAATAGGTAGGGTCGGATGGGCTACGGTGTAGCTAAACTGCTTTGTCGACGGG
B2: Aptamer 30-16/27 (structured_DNA)
DNA: TACCGTGGTAGGGAAGGTTGGAGTGTA
B3: Aptamer G15D (structured_DNA)
DNA: GGTTGGTGTGGTTGG
B4: Aptamer 30-38/27 (structured_DNA)
DNA: ACCCGTGGTAGGGTAGGATGGGGTGGT
B5: Aptamer 60-18/38 (structured_DNA)
DNA: CAGTCCGTGGTAGGGCAGGTTGGGGTGACTTCGTGGAA
B6: Aptamer 30-14 (structured_DNA)
DNA: AGATGCCTGTCGAGCATGCTGTTGTGGTAGGGTTAGGGATGGTAGCGGTTGTAGCTAAACTGCTTTGTCGACGG

Target: thrombin (Recothrom), recombinant human (Homo sapiens, UniProt P00734;P00734 315-363;364-622)
Assay: ELISA (apparent Kd); 1 mM Mg2+; ELISA: 25 mM Tris, 10 mM NaCl, 1 mM MgCl2, pH 7.4, RT, 1 h; aptamers heated 95 C 10 min and refolded at RT 20 min; Kd unit (nM) from Results text. BLI: Octet RE
Conditions: not given

| Binder | Kd [nM] |
| --- | --- |
| B1 | 0.58 |
| B2 | 1.54 |
| B3 | 1.48 |
| B4 | 1.28 |
| B5 | 1.48 |
| B6 | 2.75 |

Target: thrombin (Thrombin JMI), bovine plasma (Bos taurus, UniProt P00735;P00735 318-366;367-625)
Assay: ELISA; 1 mM Mg2+; ELISA: 25 mM Tris, 10 mM NaCl, 1 mM MgCl2, pH 7.4, RT, 1 h; aptamers heated 95 C 10 min and refolded at RT 20 min; Kd unit (nM) from Results text. BLI: Octet RE
Conditions: protein: native; copies: 1;1

| Binder | binding result |
| --- | --- |
| B1 | no binding |
| B2 | no binding |
| B4 | no binding |
| B5 | no binding |
| B6 | no binding |

Reference: publication PMC3288073, “Aptamers as a Sensitive Tool to Detect Subtle Modifications in Therapeutic Proteins”
